Target: double-phosphorylated JNK1 (phospho-JNK1) (human, double-phosphorylated (sites not stated for this protein))
Assay: cell-based or functional assay

B1: MKP7-CD (F285D) (domain or fragment, human, UniProt Q9BY84 156-301, looked up)
chain: NIGPTRILPNLYLGCQRDVLNKELMQQNGIGYVLNASNTCPKPDFIPESHFLRVPVNDSFCEKILPWLDKSVDFIEKAKASNGCVLVHCLAGISRSATIAIAYIMKRMDMSLDEAYRFVKEKRPTISPNDNFLGQLLDYEKKIKNQ
In the case of B1, the “phosphatase activity for JNK1 dephosphorylation, relative to wild-type MKP7-CD (Fig. 4a)” value is reported as about 10 fold.
